Measured values from PMC11290490, “Structural insights into activation mechanisms on NADase of the bacterial DSR2 anti-phage defense system” (Science Advances, 2024).

B3: defense-associated sirtuin2 (DSR2) from Bacillus subtilis 29R (enzyme, UniProt P0DXN8 1-1005, looked up)
chain: MVKVDLESKRYGEKLKEVFLMLDNNVVECIKEITESSRNGKLVFFVGAGVSTLSDYPQWWRLVDKYHEELYGSPKKGNYSSDEYLRIPQIFYNVKGEMAFDGILKDFFQVDKPTNPIHDKILAMNPAHVITTNYDNLIDTACWKRGKYFSVISAEEDVANATSSRYLLKVHGDFRKGFKGENVVLKEDDYLNYDQNYPLISNLMKTIIATHTIVFIGYGLGDYNINMLLNWVRKLQKDSFHKPFFIRTDPSPIENETLIYYENKGLRIIDAASLIDSNEYDYLERYSAVMDLLIESQENKFITKDDEVIDYIYGKISPLFALQYIRKIDLKHVFEYDYHFEVNGTVVRHKNKGFGYMERFFELKESCDERSKLSKKQYERFNALFNFFEKNGVICMAKDAGTLNTSIEINSLAYHGKYDVMKKFIEEQSVSIEDDYKKAFFLACLGRWEESYDLYSNIILNSIDESNGCVYYLSQINRYRIYQSITQAVTQFNGLGLLTFGRHYKPFTDEFLARIEREMTNFNIDDLFNGMPFEFQKKYKILEFLSDNQFLYDDTVKLFELTNKVRSEMSEGSYSFGMSSDIVVLLRLYDNLRFLYENCLWSVSFHEFHQYIRNSMSLLIEKAEYERTRDIDELGFSFFGKKSGFFMEYYDFVNISRHFKIDDIKNLERSCSIDKIRFGEQEKIEEYLVGIAEEITKQFSANGMNVVFYTQFISEAKAALYFAKYVKLSEEGLGKIVKALLFYFPERDLDIGKRYVWLERLTKCNELPKSIISIIDDFLVLQAEKHIDQNYSEVSSNGLYSRDYGALIKHFEKNFISKRLSEITLCLTQDKQKQIDFLFKLLPLLSTNAKSHLLSFKSVENINDLMNGIRIGLIDEFTPEHEELIIEYLETRKVNYIVEKEKGIQTFSSNDYMSTFGIWYFLEEINNSKMEEFIGMDDQYDFFVDPENFDYKKFIPSWLKNYNDKLLGKIAGNKHMKHHVIEVLKERVKNSNDKRYLEILMNYFI
notes: DSR2 from Bacillus subtilis 29R, WP_029317421; SIR2 domain residues 1 to 297, MID 297 to 627, CTD 627 to 1005; Cloned into pET28a; tag not cleaved (purified directly by SEC); For MST the protein was fluorescently labelled with the Monolith Protein Labeling Kit RED-NHS second generation; also called DSR2^WT; His-tag DSR2; source: E. coli BL21(DE3), purified (Ni-NTA, size-exclusion gel filtration)

Assays:
[1] = target: B3; test: MST; DSR2 fluorescently labelled (RED-NHS), 100 nM, mixed with twofold dilutions of TTP or DSAD1; 10 mM phosphate-buffered saline, 0.05% Tween 20; 20 min at room temperature; Monolith NT.115; triplicate; conditions: both partners purified
[2] = target: B3; test: cryo-EM structure; purified DSR2 or its complex with DSAD1 or TTP (formed at a molar ratio of 1:3, on ice, purified by gel filtration), 1.0 mg/ml on Quantifoil grids; conditions: both partners purified
[3] = target: the molecule itself; test: as above

B1: monomeric tail tube protein (TTP) of phage SPR (natural protein)
chain: MKTVIQDTADVYFKRKSDGKLVFTAEAQTASFSQAISEEKLRGGIGNKPLYILKSEKEINLTVKNAFFDLEWLAMTQGETIQEETKVKVFDREHGLIVDDTNKVTLKGKPVSDVTFYNKKGLTYKIAVSTDGTYTIPTAFAAAKDKLTAVYQIEKVGRRLAIKASKFSERYEVEYRTIAYNPDTEEVYSDIYIQFPNVSPSGEFEMSLENGNALAPEIKFEALADTDTDEMAVVIEASRDENTAAPVEDTTGSTQSSDLGGTTE
notes: tail tube protein (TTP) from phage SPR, WP_010328117; residues 1 to 73 and 189 to 263 seen in the complex structure; also called Mono TTP; monomeric TTP; source: E. coli BL21(DE3), purified (Ni-NTA, TEV cleavage, SEC; monomeric fraction); not shown: His-tag, N-terminal, cleaved; Trx-tag, N-terminal, cleaved
- Kd [1]: 655 nM

B2: DSR anti-defense 1 (DSAD1) from phage phi3T/SPbeta (natural protein)
chain: KDTGATHDLVYHSKINTFVWDVEFDIVLSDSKELNKCYFVKCFNPYRINGKCDFAVSSIDIFSEGKRLLIENEFNFKITKAVHVATSKDVTEIVLHLSERISSPFPIVKEVVYLD
notes: DSAD1 from phage phi3T/SPbeta, WP_004399562; source: E. coli BL21(DE3), purified (Ni-NTA, TEV cleavage, SEC); not shown: His-tag, N-terminal, cleaved; Trx-tag, N-terminal, cleaved
- stoichiometry N [2]: 0.5 DSAD1:DSR2
- Kd [1]: 40.4 nM

Binder: B3
- stoichiometry N [3]: 4
